Laboratory results from publication PMC3902905.

What was measured:
[1] = target: Egg nucleoplasmin (eNP) from Xenopus laevis (X. laevis) (UniProt P05221); test: AUC; sedimentation equilibrium, Buffer I (0.24 M NaCl), NP 0.3 µM, 4°C, 8000 and 12 000 rpm, fit to a single ideal species
[2] = target: Egg nucleoplasmin (eNP) from Xenopus laevis (X. laevis) (UniProt P05221); test: co-sedimentation; 5–20% sucrose gradient in Buffer I (240 mM NaCl), NP 0.9 µM mixed with histones, 1 h 25°C, 29 000 rpm 22 h 4°C; fractions by A230 and SDS–PAGE
[3] = target: Egg nucleoplasmin (eNP) from Xenopus laevis (X. laevis) (UniProt P05221); test: native gel or EMSA; 2D electrophoresis (4–16% native PAGE, then 12.5% SDS–PAGE) of the high molecular mass complex and densitometry with known amounts of each protein as standards; Buffer I, 240 mM NaCl

UniProt P05221, sequence (P05221 whole entry): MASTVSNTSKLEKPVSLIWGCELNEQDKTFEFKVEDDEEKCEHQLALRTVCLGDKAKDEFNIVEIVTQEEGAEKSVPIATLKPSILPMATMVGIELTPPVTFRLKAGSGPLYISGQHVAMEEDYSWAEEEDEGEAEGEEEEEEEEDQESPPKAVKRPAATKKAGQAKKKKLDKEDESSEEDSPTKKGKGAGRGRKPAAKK

stoichiometry N (eNP pentamers per histone octamer) [1] | stoichiometry N (octamer per NP pentamer) [2] | stoichiometry N (octamer per NP pentamer) [3] | stoichiometry N (H3-H4 dimers per NP pentamer) [3] | Substance
2 | 0.5 | 0.54 | – | Natural source histone octamer from chicken erythrocyte chromatin (from UniProt P70081 1-103) (complex)
– | – | – | 2.1 | Natural source histones H3-H4 from chicken erythrocyte chromatin (from UniProt P84229 1-136; P70081 1-103) (complex)
